Drawing on paper PMC12617615, “Decoding substrate recognition in malapain-2 through structural and mutational insights” (Computational and Structural Biotechnology Journal, 2025), this text covers Km for one substance.

Series [1] concerns Cc1cc(=O)oc2cc(NC(=O)[C@H](CCCNC(=N)N)NC(=O)[C@H](CC(C)C)NC(=O)OCc3ccccc3)ccc12. The experiment in a line: purified protein. The note with it: 100 mM sodium acetate pH 5.0, 10 mM DTT, 37 °C, 20 nM enzyme, substrate range 0.1–100 μM.
Excerpt: (§1) fluorogenic AMC release, Michaelis-Menten on malapain-2 (MP-2)
The subject of series [2] is Cc1cc(=O)oc2cc(NC(=O)[C@H](CCCNC(=N)N)NC(=O)[C@H](CCCNC(=N)N)NC(=O)OCc3ccccc3)ccc12. The experiment in a line: purified protein. The following applies: 100 mM sodium acetate pH 5.0, 10 mM DTT, 37 °C, 20 nM enzyme, substrate range 0.1–100 μM.
Excerpt: as §1

Broadly, the Km is the substrate concentration at which the rate is half of its maximum. malapain-2 (MP-2) (Plasmodium malariae): the Michaelis constant (Km) in series [1] is given as 111.2 ± 1.2 µM; in series [2] it was 846.4 ± 0.6 µM.
